The results in this text go back to the nanobody polyreactivity screen of Harvey et al. (2022).

This series in a line: yeast display, Sf9 membrane polyspecificity reagent, FACS + sequencing; frameworks hold sequencing errors. A digest of the protocol:
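Synthetic nanobody libraries on Saccharomyces cerevisiae BJ5465 were galactose-induced for 36–48 hours, stained 1 hour at 4 °C with 10% biotinylated, detergent-solubilized Sf9 membrane reagent and enriched on streptavidin microbeads. FACS then separated cells into low and high (top ~1%) gates by anti-HA (expression) and streptavidin (reagent binding) fluorescence. Genes were colony-PCR amplified, MiSeq 2 × 250 sequenced and CDR-length filtered. A clone's polyreactivity label is that of its gate of origin.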
“QVQLVESGGGLVQAGGSLRLSCAASGFTFWYYAMGWYRQAPGKERELVAAITRGGSTNYADSVKGRFTISRDNAKNTVYLQMNSLKPEDTAVYYCAKRQGYPTYRRYDYWGQGTQVTVSS”: the “polyreactivity (PSR sort gate)” value is given as “high polyreactivity”. On to “QVQLVESGGGLVQAGGSLRLSCAASGFTFWYYAMGWYRQAPGKERELVATISRGGGSTYYADSVKGRFTISRDNAKNTVYLQMNSLKPEDTAVYYCAAETVRWWWLYDYWGQGTQVTVSS”, for which the “polyreactivity (PSR sort gate)” value was “high polyreactivity”. As for “QVQLVESGGGLVQAGGSLRLSCAASGFTFWYYSMGWYRQAPGKERELVASISRTGGTTYYADSVKGRFTISRDNAKNTVYLQLNSLKPEDTAVYYCNARPKVYYREYDYWGQGTQVTVSS”, the entry is “high polyreactivity”.

Regarding “QVQLVESGGGLVQAGGSLRLSCAASGFTFYANAMGWYRQAPGKERELVAAIDQSGTSTNYADSVKGRFTISRDNAKNTVYLQMNSLKPEDTAVYYCAADSSFYYYPLILFWGDYWGQGTQVTVSS”, the “polyreactivity (PSR sort gate)” value was “low polyreactivity”.

Turning to “QVQLVESGGGLVQAGGSLRLSCAASGFTFYAYAMGWYGQAPGKERELVAAITGRGGSTYYADSVKGRFTISRDNAKNTVYLQMNSLKPEDTAVYYCNKVKKSDKFNNFSNDYWGQGTQVTVSS”, the “polyreactivity (PSR sort gate)” value was “high polyreactivity”.

As to “QVQLVESGGGLVQAGGSLRLSCAASGFTFYDYAMGWYRQAPGKEREFVAAITWSGSSTYYADSVKGRFTISRDNAKNTVYLQMNSLKPEVTAVYYCAVGPFRRRGHYPTYYRYGYWGQGTQVTVSS”, the “polyreactivity (PSR sort gate)” value is “high polyreactivity”.

Consider “QVQLVESGGGLVQAGGSLRLSCAASGFTFYFNAMGWYRQAPGKERELVAGITSGGSTNYADSVKGRFTISRDNAKNTVYLQMNSLKPEDTAVYYCATDLLNNVDYDYWGQGTQVTVSS”, for which the “polyreactivity (PSR sort gate)” value is on record as “low polyreactivity”. Take “QVQLVESGGGLVQAGGSLRLSCAASGFTFYFYAMGWYRQAPGKERELVAAISRGGSTTYADSVKGRFTISRDNAKNTVYLQMNSLKPEDTAVYYCAVGYDIVRYSYSPFYRYDYWGQGTQVTVSS”: the “polyreactivity (PSR sort gate)” value is “low polyreactivity”. As for “QVQLVESGGGLVQAGGSLRLSCAASGFTFYGNAMGWYRHAPGKERELVAAIRSGGITYYADSVKGRFTISRDNAKNTVYLQMNSLKPEDTSVYYCAAYSDYYLDQWYGYWGQGTQVTVSS”, the entry is “low polyreactivity”. On to “QVQLVESGGGLVQAGGSLRLSCAASGFTFYGNAMGWYRQAPGKERELVAAISSRVGRTYYADSVKGRFTISRDNAKNTVYLQMNSLKPEDTAVYYCAKAPYGVRRGLYDYWGQGTQVTVSS”, for which the “polyreactivity (PSR sort gate)” value is given as “high polyreactivity”. Under “QVQLVESGGGLVQAGGSLRLSCAASGFTFYGNAMGWYRQAPGKERELVAAISSTGGSTFYADSVKGRFTISRDNAKNTVYLQMNSLKPEDTAVYYCAVRRYTKFRSTRYYYWGQGTQVTVSS” stands “high polyreactivity”; under “QVQLVESGGGLVQAGGSLRLSCAASGFTFYGYAMGWYRQAPGKERELVAAISTRGSRTYYADSVKGRFTISRDNAKNTVYLQMNSLKPEDTAVYYCARRRGPSYGLDYWGQGTQVTVSS”, “high polyreactivity”; under “QVQLVESGGGLVQAGGSLRLSCAASGFTFYGYAMGWYRQAPGKERELVASINRSGGTTYYADSVKGRFTISRDNAKNTVYLQMNSLKPEDTAVYYCAASYVYRFTKYYYWGQGTQVTVSS”, “high polyreactivity”. As for “QVQLVESGGGLVQAGGSLRLSCAASGFTFYGYGMGWYRQAPGKERELVAGISSGGGSTIYADSVKGRFTISRDNAKNTVYLQMNSLKPEDTAVYYCAADYWPYSYDTYPAEFDYWGQGTQVTVSS”, the entry is “low polyreactivity”. On to “QVQLVESGGGLVQAGGSLRLSCAASGFTFYHNAMGWYRQAPGKERELVATITARGGRTYYADSVKGRFTISRDNAKNTVYLQMNSLKPVDTAVYYCNVKASRGYTYEYDYWGQGTQVTVSS”, for which the “polyreactivity (PSR sort gate)” value was “high polyreactivity”. Under “QVQLVESGGGLVQAGGSLRLSCAASGFTFYKYTMGWYRQAPGKERELVAAISARGGSTYYADSVKGRFTISRDNAKNTVYLQMNSLKPEDTSVYYCAADFWRTYGLGYDYWGQGTQVTVSS” stands “high polyreactivity”; under “QVQLVESGGGLVQAGGSLRLSCAASGFTFYKYVMGWYRQAPGKERELVAAITQGGGSTYYADSVKGRFTISRDNAKNTVYLQMNSLKPEDTAVYYCAAVTRGSRGVNFGYWGQGTQVTVSS”, “high polyreactivity”; under “QVQLVESGGGLVQAGGSLRLSCAASGFTFYLYTIGWYRQAPWKERELVATITSDGGTNYADSVKVRFTISRDNAKNTLYLQMNSLKPEDTAVYYCNAASRRGSRKQAKYDYWGQGTQVTVSS”, “low polyreactivity”. Turning to “QVQLVESGGGLVQAGGSLRLSCAASGFTFYLYTMGWYRQAPGKERELVAAISWRGGGTYYADSVKGRFTISRDNAKNTVYLQMNSLKPEDTAVYYCAAYWRRRLDYYYWGQGTQVTVSS”, the “polyreactivity (PSR sort gate)” value was “high polyreactivity”. Under “QVQLVESGGGLVQAGGSLRLSCAASGFTFYLYTMGWYRQAPGKERELVATINSDGGTNYADSVKGRFTISRDNAKNSVYLQMNSLKPEDTAVYYCNAASRRGSRKQAKYEYWGQGTQVTVSS” stands “low polyreactivity”; under “QVQLVESGGGLVQAGGSLRLSCAASGFTFYNNAMGWYRQAPGKERELVAVITSNGGRTYYADSVKGRFTISRDNAKNTVYLQMNSLKPEDTAVYYCAKDYKALYLYHYRISGGDVDYWGQGTQVTVSS”, “low polyreactivity”; under “QVQLVESGGGLVQAGGSLRLSCAASGFTFYPYAMGWYRQAPGKERELVAAITSGGRTNYADSVKGRFTISRDNAKNTVYLQMNSLKPEDTAVYYCNTVSWWGRNYQDEYYYWGQGTQVTVSS”, “high polyreactivity”. Under “QVQLVESGGGLVQAGGSLRLSCAASGFTFYPYTMGWYRQAPGKERELVAAISSSGGSTYYADSVKGRFTISRDNAKNTVYLQMNSLKPEDTAVYYCNKYQRNWFSRAPMDYWGQGTQVTVSS” stands “high polyreactivity”; under “QVQLVESGGGLVQAGGSLRLSCAASGFTFYPYVMGWYRQAPGKERELVAAINSGGARTYYADSVKGRFTISRDNAKNTVYLQMNSLKPEDTAVYYCAARTVVGGRIYYYWGQGTQVTVSS”, “high polyreactivity”. Regarding “QVQLVESGGGLVQAGGSLRLSCAASGFTFYQNAMGWYRQAPGKVRELVAAIDRRGGRTYNADSVKGRFTISRDNAKKTVYLQMNSLKPEDTAVYYCNKEKYYTGYDYWGQGTQVTVSS”, the “polyreactivity (PSR sort gate)” value was “high polyreactivity”. Under “QVQLVESGGGLVQAGGSLRLSCAASGFTFYQYAMGWYRQAPGKERELVAAITRRGGSTSYADSVKGRFTISRDNAKNTVYLQMNSLKPEDTAVYYCAREGSNSGRHGTLFDYWGQGTQVTVSS” stands “high polyreactivity”; under “QVQLVESGGGLVQAGGSLRLSCAASGFTFYRNAMGWYRQAPGKERELVAAITWSGTSTYYADSVKGRFTISRDNAKNTVYLQMNSPKPEDTAVYYCNTVGYRGRSNSRFYYWGQGTQVTVSS”, “high polyreactivity”; under “QVQLVESGGGLVQAGGSLRLSCAASGFTFYRYAMGWYRQAPGKEREFVASISWSGGSTYYADSVKGRFTISRDNAKNTVYLQMNSLKPEDTAVYYCAATSQAYWDLWSTYYTYYYWGQGTQVTVSS”, “high polyreactivity”. As for “QVQLVESGGGLVQAGGSLRLSCAASGFTFYRYAMGWYRQAPGKERELVAAISRGGSTNYADSVKGRFTISRDNAKNTVYLQMNSLKPEDTAVYYCNTRYVKGFYWGQGTQVTVSS”, the entry is “high polyreactivity”. As for “QVQLVESGGGLVQAGGSLRLSCAASGFTFYRYAMGWYRQAPGKERELVAAISSTGDRTYYADSVKGRFTISRDNAKNTVYLQMNSLKPEDTAVYYCAAPYQNQVEFNYWGQGTQVTVSS”, the “polyreactivity (PSR sort gate)” value was “high polyreactivity”.

As to “QVQLVESGGGLVQAGGSLRLSCAASGFTFYRYAMGWYRQAPGKERELVAAITWSGGSTYYADSVKGRFTISRDNAKNTVYLQMNSLKPEDTAVYYCAASRWIFQVNDYDYWGQGTQETVSS”, the “polyreactivity (PSR sort gate)” value was “high polyreactivity”.

“QVQLVESGGGLVQAGGSLRLSCAASGFTFYRYAMGWYRQAPGKERELVATISASGASTYYADSVKGRFSISRDNAKNNVYLQMNRLKPEDTAVYYCAVRYKSWYGFNYWGQGTQVTVSS”: the “polyreactivity (PSR sort gate)” value is “high polyreactivity”. Under “QVQLVESGGGLVQAGGSLRLSCAASGFTFYRYAMGWYRQAPGKERELVAVITRGGSTNYADSVKGRFTISRDNAKNTVYLQMNSLKPEDTAVYYCAARWFAGDWDYWYDYWGQGTQVTVSS” stands “low polyreactivity”; under “QVQLVESGGGLVQAGGSLRLSCAASGFTFYRYARGWYRQAPGKERELVAAISSDGTTYYADSVKGRFTISRDNATNTVYLQMNSLKPEDTAVYYCAKRGYYRSRRYDYWGQGTQVTVSS”, “high polyreactivity”; under “QVQLVESGGGLVQAGGSLRLSCAASGFTFYRYDMGWYRQAPGKERELVAAITNNGGNTYYADSVKGRFTISRDNAKNTVYLQMNSLKPEDTAVYYCATKRYYWRGYWGQGTQVTVSS”, “high polyreactivity”.

In the case of “QVQLVESGGGLVQAGGSLRLSCAASGFTFYRYTMGWYRPARGKESELVARITYSGGSTYYADSVKGRFTISRDNAKNTVYLQLNSVKPVDTAVYYCNARSDFYSRYGYKYDYWGQGTQVTVSS”, the “polyreactivity (PSR sort gate)” value is “high polyreactivity”. Under “QVQLVESGGGLVQAGGSLRLSCAASGFTFYRYTMGWYRQAPGIYRELVAAISSGDSTYYADSVKGRFTISRDNAKNTVYLQMNSLKPEDTAVYYCAARQYSRGAIVYYWGQGTQVTVSS” stands “high polyreactivity”; under “QVQLVESGGGLVQAGGSLRLSCAASGFTFYSKAMGWYRQAPGKERQLVATIRSDGRTNYADSVKGRFTISRDNAKNTVYLQMNSLNPEDTAVYYCNADYRNDWGTPLWYAYNYWGQGTQVTVSS”, “low polyreactivity”. “QVQLVESGGGLVQAGGSLRLSCAASGFTFYSNAMGWSRQAPGKERELVATIRYRGGSTYADSVKGRFTISRDNAKNTVYLQMNSLKPEDTAVYYCAARKYRSFRQRTGDYWGQGTQVTVSS”: the “polyreactivity (PSR sort gate)” value is on record as “high polyreactivity”.

Regarding “QVQLVESGGGLVQAGGSLRLSCAASGFTFYSNAMGWYRQAPGKERELVAAITSSGGSTYYADSVKGRFTISRDNAKNTVYLQMNSLKPEDTAVDYCNVRVGYRRYGYWGQGTQVTVSS”, the “polyreactivity (PSR sort gate)” value was “high polyreactivity”.
